Laboratory results reported in paper PMC7570871, “Evaluation of a New ^177Lu-Labeled Somatostatin Analog for the Treatment of Tumors Expressing Somatostatin Receptor Subtypes 2 and 5” (Molecules, 2020).

Type: physicochemical
Details: pH 7.4
Procedure: To a pre-saturated mixture of 500 µL 1-octanol and 500 µL of phosphate-buffered saline (PBS) (pH 7.4), 10 µL of 1 µM of the ^177Lu-labeled conjugates were added. The solution was vortexed for 1 h to reach the equilibrium and then centrifuged (3000 rpm) for 10 min. From each phase, 100 µL of the aliquot was removed and measured in a γ-counter. Each measurement was repeated three times. Care was taken to avoid cross-contamination between the phases. The partition coefficient was calculated as the average of the logarithmic values (n = 3) of the ratio between the radioactivity in the organic and the PBS phase.

C[C@@H](O)[C@@H]1NC(=O)[C@H](CCCCN)NC(=O)[C@@H](Cc2c[nH]c3ccccc23)NC(=O)[C@H](Cc2cccc3ccccc23)NC(=O)[C@@H](NC(=O)[C@@H](Cc2ccccc2)NC(=O)CN2CCN(CC(=O)O)CCN(CC(=O)O)CCN(CC(=O)O)CC2)CSSC[C@@H](C(=O)N[C@H](CO)[C@@H](C)O)NC1=O [[^177Lu]Lu-DOTA-NOC, metal not drawn, reference compound]
logD: -1.6 ± 0.1
